Article PMC8642242 (Nature Immunology, 2021)
Changes are numbered by the printed parent chain.

B1: WRAIR-2039 LALA-PG (human IgG1 with the triple Fc mutation LALA-PG) (antibody, V domains shown)
VH: QVQLVQSGAEVKKPGASVKVSCKVSGYMLIELSMHWVRQAPGKGLEWMGGFDPEDAETIYAQEFQGRVTMTEDTSTDTAYMELSSLRSEDTAVYYCTTGPAVTNRPADYWGPGTLVTVSS
VL: QSVLTQPPSVSGAPGQRVTISCTGSSSNIGASYDVHWYQQLPGTAPKLLIYANSNRPSGVPDRFSGSKSGTSASLAITGLQAEDEADYYCQSYDSSLSYSVVFGGGTKLTVL
B2: WRAIR-2173 LALA-PG (human IgG1 with the triple Fc mutation LALA-PG) (antibody, V domains shown)
VH: QVQLQESGPGLVKPSETLSLTCSVSGDSISSSDYSWGWIRQPPGKGLEWIGTIYYIKNTYYNPSLRSRVTLSVDTSKNLFSLKLSSVTAADTAVYYCARERPPFDVVVVPAARPYNWFDPWGLGTLVIVSS
VL: B1 VL with T5M, S32G, A52G, S54N, E83D, Y99G, V101K
B3: WRAIR-2004 LALA-PG (human IgG1 with the triple Fc mutation LALA-PG) (antibody, V domains shown)
VH: QVQLVQSGAEVKKPGASVKVSCKASGYTFTGYYMHWVRQAPGQGLEWMGRINPSSGGTNYAQKFQGRVTMTRDTSISTAYMELSSLRSDDTAVYYCATDGDDGENWFDPWGQGTLVIVSS
VL: DIQMTQSPSSLSASVGDRVTITCRASQGISSWLAWYQQKPEKAPKSLIYAASSLQSGVPSRFSGSGSGTDFTLTISSLQPEDFATYYCQQYNSYPYTFGQGTKLEIK
B4: WRAIR-2025 LALA-PG (human IgG1 with the triple Fc mutation LALA-PG) (antibody, V domains shown)
VH: QVHLVQSGAEVKKPGASVKVSCKVSGYTLVELSVHWVRQAPAKGLEWIGGFDPEDGETIYAQKFQGRVTMTEDTSTDTAYMELTNLRSEDTAVYYCVTSQPFVSPNWFDPWGQGTLVTVSS
VL: QSALTQPASVSGSPGQSITISCTGTSRDVGAYNYVSWYQQHPGKAPKLMIYEVTTRPSGVSNRFSGSKSGNTASLTISGLQAEDEADYYCSSYTGSRTLVFGTGTKVTVL
B5: WRAIR-2123 LALA-PG (human IgG1 with the triple Fc mutation LALA-PG) (antibody, V domains shown)
VH: EVQLVESGGGVVQPGRSLRLSCAASGFTFSSYAMHWVRQAPGKGLEWVAVLSYDGSNKYNADSVKGRFTISRDNSKNTLYLQMNSLRVEDTAMYYCARDGVSVTMVRGVIGPLCDYWGQGTLVTVSS
VL: not shown

Biological target: SARS-CoV-2 S protein, full length (IL1/2020), on 293F-Spike-S2A cells (SARS-CoV-2, USA/IL1/2020 (S identical …, UniProt P0DTC2))
Assay: flow cytometry on cells
Settings: one partner purified

| Binder | binding result |
| --- | --- |
| B1 | binds |
| B2 | binds |
| B3 | binds |
| B4 | binds |
| B5 | binds |
